Several values for one entry are separate records, joined by “and”; a condition that tells them apart may be missing. Identical values can stand only once. Like-named read-outs stand apart in the source and are kept apart here. Values belong to the molecule of their own block, whether it stands above or below them.
Key:
[1] = target: CD200R (Mus musculus) (UniProt Q9ES57); details: cited from earlier work
[2] = target: CD200R (Mus musculus) (UniProt Q9ES57); details: cited from earlier work; remark: listed apart in the source
[3] = target: mouse CD200 (residues 1-232) CD4-Bio, mutant Q27K (mouse) (UniProt O54901); experiment: SPR; BIAcore 3000, 25°C, HBS; wild-type and mutant CD200 CD4-Bio and CD4 control (about 650 RU each) held by OX68 mAb amine coupled to a CM5 chip; serial dilutions of soluble CD200R injected (KD from equilibrium binding), mutants tested with CD200R at 0.5 μM and given as percent of wild type
[4] = target: mouse CD200 extracellular region (residues 1-232) tagged with rat CD4 domains 3 and 4 and a biotinylation site, wild type (mouse) (UniProt O54901); experiment: as above
[5] = target: T1, mouse CD200RLa (residues 1-237) CD4-Bio, triple mutant N63K, K66T, and L114F (mouse); experiment: SPR
T1 chain: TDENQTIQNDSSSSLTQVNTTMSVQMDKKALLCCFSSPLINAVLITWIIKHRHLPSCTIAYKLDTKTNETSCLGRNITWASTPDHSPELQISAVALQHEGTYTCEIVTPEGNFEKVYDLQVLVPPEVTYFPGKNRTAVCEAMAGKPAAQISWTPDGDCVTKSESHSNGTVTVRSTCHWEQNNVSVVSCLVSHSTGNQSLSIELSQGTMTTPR

[6] = target: T2, mouse CD200RLa (residues 1-237) CD4-Bio chimeric protein, wild type (mouse); experiment: SPR
T2 chain: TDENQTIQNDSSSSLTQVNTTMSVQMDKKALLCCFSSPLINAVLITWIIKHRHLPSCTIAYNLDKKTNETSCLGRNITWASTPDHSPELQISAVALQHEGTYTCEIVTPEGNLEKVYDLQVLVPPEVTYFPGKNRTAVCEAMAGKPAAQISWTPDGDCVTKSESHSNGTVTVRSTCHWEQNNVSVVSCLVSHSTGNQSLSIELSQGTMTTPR

[7] = target: T3, mouse CD200R (residues 1-232) CD4-Bio chimeric protein (mouse, UniProt Q9ES57 26-232); experiment: SPR
T3 chain: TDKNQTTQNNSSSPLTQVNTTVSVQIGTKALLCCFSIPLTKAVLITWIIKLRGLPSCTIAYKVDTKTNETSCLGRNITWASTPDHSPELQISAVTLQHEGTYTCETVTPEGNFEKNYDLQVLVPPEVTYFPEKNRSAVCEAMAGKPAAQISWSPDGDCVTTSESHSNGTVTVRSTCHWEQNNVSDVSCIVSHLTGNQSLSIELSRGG

[8] = target: mouse CD200RLa (residues 1-237) CD4-Bio, double mutant N63K K66T (mouse); experiment: SPR; BIAcore 3000, 25°C; CD200R and wild-type and mutant CD200RLa CD4-Bio held by OX68 on a CM5 chip; increasing concentrations of CD200 injected; KDs by nonlinear curve fitting
[9] = target: mouse CD200RLa (residues 1-237) CD4-Bio, mutant L114F (mouse, UniProt Q6XJV4 26-237, L114F); experiment: as above; details: one partner purified

Molecule: CD200 (from UniProt O54901)
Kd [1]: 4 µM

Molecule: CD200 (from UniProt P41217)
Kd [2]: 7 µM

Continued, values first:

percent of wild-type binding response [3]: 150%
Kd [4]: 0.5 µM
Molecule: mouse CD200R extracellular region with C-terminal polyhistidine tag (receptor)

Kd [5]: 1.1 µM and 0.9 µM
Kd [6]: > 40 µM
Kd [7]: 0.6 µM
Kd [8]: 18.4 µM
Kd [9]: 4.2 µM
B1: mouse CD200 extracellular region with C-terminal polyhistidine tag (ligand, UniProt O54901 31-232, looked up)
chain: QVEVVTQDERKALHTTASLRCSLKTSQEPLIVTWQKKKAVSPENMVTYSKTHGVVIQPAYKDRINVTELGLWNSSITFWNTTLEDEGCYMCLFNTFGSQKVSGTACLTLYVQPIVHLHYNYFEDHLNITCSATARPAPAISWKGTGTGIENSTESHFHSNGTTSVTSILRVKDPKTQVGKEVICQVLYLGNVIDYKQSLDKG
modifications: N-linked sugars cut back to N-acetyl-glucosamine by Endoglycosidase Hf (crystallised form); NH2 terminus presumably cyclized glutamine (pyroglutamic acid)
notes: signal peptide in the construct; mouse CD200, extracellular region (two Ig-like domains), residues 1-232 of NP_034948; the range counts on the precursor; Protein in the flow-through of the concanavalin A column was crystallised; protein eluted from the column was used as the soluble ligand in SPR; also called soluble CD200; recombinant CD200

Source: article PMC3664923, “Structures of CD200/CD200 Receptor Family and Implications for Topology, Regulation, and Evolution” (Structure(London, England:1993), 2013)
